Data: publication PMC6125206 (Structure (London, England : 1993), 2018)

Target: the molecule itself
Test: AUC

B1: E. coli cyclopropane fatty acid (CFA) synthase, wild type (from His6-TEV-CFA synthase) (enzyme, UniProt P0A9H7 1-382, looked up)
chain: MSSSCIEEVSVPDDNWYRIANELLSRAGIAINGSAPADIRVKNPDFFKRVLQEGSLGLGESYMDGWWECDRLDMFFSKVLRAGLENQLPHHFKDTLRIAGARLFNLQSKKRAWIVGKEHYDLGNDLFSRMLDPFMQYSCAYWKDADNLESAQQAKLKMICEKLQLKPGMRVLDIGCGWGGLAHYMASNYDVSVVGVTISAEQQKMAQERCEGLDVTILLQDYRDLNDQFDRIVSVGMFEHVGPKNYDTYFAVVDRNLKPEGIFLLHTIGSKKTDLNVDPWINKYIFPNGCLPSVRQIAQSSEPHFVMEDWHNFGADYDTTLMAWYERFLAAWPEIADNYSERFKRMFTYYLNACAGAFRARDIQLWQVVFSRGVENGLRVAR
Q: How did the “stoichiometry N” value turn out when B1 was run?
A: Its value is 2.
